This note sets out measurements from publication PMC4081097.

The data set addresses T1, AbaSI-C3S (Acinetobacter baumannii SDF, UniProt B0VN39 1-321, C2S;C309S;C321S).
T1 sequence: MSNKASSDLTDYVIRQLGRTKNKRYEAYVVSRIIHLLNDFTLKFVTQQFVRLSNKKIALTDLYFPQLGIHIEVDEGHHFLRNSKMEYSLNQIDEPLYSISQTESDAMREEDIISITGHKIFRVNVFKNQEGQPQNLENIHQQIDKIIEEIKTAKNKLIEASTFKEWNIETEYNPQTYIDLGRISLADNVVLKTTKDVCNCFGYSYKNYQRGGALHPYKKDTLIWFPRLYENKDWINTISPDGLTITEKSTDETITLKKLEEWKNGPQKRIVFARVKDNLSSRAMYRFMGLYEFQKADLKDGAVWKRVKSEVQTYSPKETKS
Nature of the data set: X-ray crystallography.

B1: 14+4 product DNA (dsDNA)
DNA 1: TGCTCGATACAATAGGCC
DNA 2: TATTGTATCGAGCA
modifications: 5hmC at top position 5
In the case of B1, the binding result was “binds”.
